From the supplement of paper PMC10567573

B1: WDFY1 (parent)
chain: FWNIKQMWDTKTLGLRQHHCRKCG
B2: FBXO34 (parent)
chain: PRYREDPCKQCKKKYVKGDVSLCR

Variants of: B1
Test: protein stability index of a GFP-peptide fusion (GPS, HEK-293T) (PSI 1-6); higher = more stable
Settings: c terminus: a fixed tail appended
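Further: lentivirally expressed fusions sorted by FACS into six bins by GFP to DsRed ratio, PSI derived from sequencing read proportions per bin multiplied by bin number.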

Protein stability index of substitutions, site by site:
L15: P 1.55, N 2.07, Q 2.29, G 1.78, E 3.35, C 1.75, M 1.79, F 1.91, H 2.43, Y 1.98, T 2.43, V 2.35, A 2.27, S 2.95, I 1.75, R 1.93, K 2.14, D 1.56
R21: I 1.72, P 2.07, A 2.03, W 2.46, D 2.8, G 1.84, E 2.07, S 2.16, C 2.12, L 1.67, N 1.83, F 1.85, H 1.57, M 1.71, Y 2.14, K 2.78, Q 2.28, T 2.62
R16: S 2.21, E 2.3, V 1.88, L 1.79, H 2.5, N 2.1, K 2.89, T 2.55, D 2.84, I 1.43, W 1.14, C 1.59, Y 1.6, M 1.65, A 1.45, P 1.8, Q 1.94, G 1.64
G24: D 2.15, A 1.84, L 2.22, S 2.1, T 2.29, Q 2.21, C 2.22, H 2.13, P 1.88, V 2.01, Y 2.01, W 2.12, F 1.96, R 2.35, I 2.11, E 2.18, K 2.5, M 1.85, N 2.09
L13: G 2.01, Q 2.02, D 1.7, M 2, P 2.22, T 1.95, C 2.57, V 2.15, R 2.29, W 2.01, F 2.2, K 2.08, I 2.26, Y 2.67, S 2.37, N 1.96, A 2.01, H 2.22, E 2.56
H18: Q 1.82, M 2.27, C 3, V 2.02, D 2.92, E 2.21, G 2.39, I 2.01, R 2.21, L 2.31, T 3.16, S 2.58, Y 2.08, K 1.89, A 1.84, F 1.64, W 2.06, N 2.35, P 2.63
D9: W 1.75, Y 1.89
T12: C 3.57, V 2.33, G 1.77, Y 2.72, D 1.91, L 1.36, A 2.29, R 2.73, W 1.79, N 1.84, S 2.14, P 1.98, M 2.6, K 2, H 1.86, I 1.63, Q 2.39, F 2.11, E 1.72
K11: I 1.42, T 2.21, S 2.57, C 1.87, E 3.03, F 1.92, H 1.8, P 2.2, M 1.94, L 1.54, N 2.27, Y 1.77, V 1.97, W 2.44, Q 1.77, A 2.14, D 2.37, G 2.08, R 1.27
Q17: G 2.98, H 1.83, L 2.53, K 1.99, P 2.13, T 2.12, E 2.56, I 1.81, M 1.7, D 1.63, R 2.75, C 2.13, V 1.68, A 1.6, F 1.88, W 2.02, S 2.05, Y 1.98, N 2.14
G14: R 3.17, D 2.69, L 2.54, W 1.87, P 2.11, A 2.1, C 2.27, I 1.87, F 2.78, N 2.08, Y 1.48, V 1.58, H 1.85, E 2.44, Q 2.54, S 1.97, K 1.79, M 1.75, T 2.68
C20: E 2.09, S 2.44, W 2.06, G 1.87, L 2.23, T 2.52, D 3.16, M 2.57, N 2.52, F 2.41, H 2.69, R 2.4, P 1.73, I 2.17, A 1.82, Y 2.23, Q 3.22, V 2.2
H19: C 2.14, L 2.23, Q 2.4, N 2.23, W 1.66, V 2.17, R 1.75, T 1.59, I 2, F 1.64, D 2.21, Y 2.5, E 2.09, M 1.92, G 1.63, A 2.14, P 2.66, S 2.13, K 2.33
T10: H 2.13, I 2.31, D 2.56, R 2.06, C 2.11, K 3.11, G 1.89, M 2.16, F 2.52, P 2.28, V 2.04, A 1.48, E 2.39, L 2.23, S 2.18, Q 1.91, N 2.04, Y 1.41, W 2.48
C23: N 2.57, M 2.6, E 1.93, Q 2.3, R 2.09, W 1.75, A 2.18, K 2.71, P 2.19, I 1.93, H 2.78, Y 2.04, T 2.34, F 1.59, L 2.81, D 2.82
K22: Q 2.01, L 1.34, V 1.41, G 1.82, N 1.99, Y 2.2, M 1.03, A 1.59, P 1.98, H 1.44, F 3.26, S 1.66, D 3.4, E 1.6, C 1.7

Variants of: B2
Test: as above
Settings: c terminus: a fixed tail appended

Protein stability index: each site, then its substitutions
R2: F 2.66, H 2.86, N 2.85, V 2.98, M 2.49, G 3.47, C 2.41, A 2.96, K 2.52, Y 2.64, S 3.03, D 3.03, Q 3, W 3.25, T 2, I 2.98, E 2.97, L 2.76, P 2.75
R4: A 3.38
Y3: C 2.77, L 2.73, P 3.07, Q 2.74, A 3.39, K 2.63, I 2.76, E 4, G 3.39, S 2.8, H 2.67, N 2.84, F 2.93, D 2.82, R 3.24, T 2.65, M 2.56, V 2.28, W 2.55
P1: D 2.96, I 2.34, C 2.02, T 2.75, L 1.93, W 1.78, V 2.22, M 2.75, H 2.85, S 2.6, R 2.96, E 3.4, Q 2.86, A 3.11, K 3.65, F 2.61, Y 2.45, N 3.42, G 2.89
